{"source": "patent US20250051437A1", "key": {"[1]": {"target": "human cadherin-17 (CDH17), endogenously expressed on human cancer cell lines (LS513, SNU-C1, PaTu8988s, HPAF-II) (human) (UniProt Q12864)", "assay": "indirect flow cytometry (iQue) on LS513 cells (CDH17+); secondary antibody only, background control"}, "BT474 Cells": {"target": "BT474 Cells", "assay": "KinExA using BT474 Cells"}, "[2]": {"target": "human cadherin-17 (CDH17), endogenously expressed on human cancer cell lines (LS513, SNU-C1, PaTu8988s, HPAF-II) (human) (UniProt Q12864)", "assay": "flow cytometry (iQue) on PATU8988S cells; secondary antibody only, background control"}, "[3]": {"target": "human cadherin-17 (CDH17), endogenously expressed on human cancer cell lines (LS513, SNU-C1, PaTu8988s, HPAF-II) (human) (UniProt Q12864)", "assay": "flow cytometry (iQue) on LS513 cells; secondary antibody only, background control"}, "[4]": {"target": "rat CDH17 fused to moxGFP, overexpressed on HEK293T cells (rat) (UniProt P55281)", "sequence (P55281 22-827)": "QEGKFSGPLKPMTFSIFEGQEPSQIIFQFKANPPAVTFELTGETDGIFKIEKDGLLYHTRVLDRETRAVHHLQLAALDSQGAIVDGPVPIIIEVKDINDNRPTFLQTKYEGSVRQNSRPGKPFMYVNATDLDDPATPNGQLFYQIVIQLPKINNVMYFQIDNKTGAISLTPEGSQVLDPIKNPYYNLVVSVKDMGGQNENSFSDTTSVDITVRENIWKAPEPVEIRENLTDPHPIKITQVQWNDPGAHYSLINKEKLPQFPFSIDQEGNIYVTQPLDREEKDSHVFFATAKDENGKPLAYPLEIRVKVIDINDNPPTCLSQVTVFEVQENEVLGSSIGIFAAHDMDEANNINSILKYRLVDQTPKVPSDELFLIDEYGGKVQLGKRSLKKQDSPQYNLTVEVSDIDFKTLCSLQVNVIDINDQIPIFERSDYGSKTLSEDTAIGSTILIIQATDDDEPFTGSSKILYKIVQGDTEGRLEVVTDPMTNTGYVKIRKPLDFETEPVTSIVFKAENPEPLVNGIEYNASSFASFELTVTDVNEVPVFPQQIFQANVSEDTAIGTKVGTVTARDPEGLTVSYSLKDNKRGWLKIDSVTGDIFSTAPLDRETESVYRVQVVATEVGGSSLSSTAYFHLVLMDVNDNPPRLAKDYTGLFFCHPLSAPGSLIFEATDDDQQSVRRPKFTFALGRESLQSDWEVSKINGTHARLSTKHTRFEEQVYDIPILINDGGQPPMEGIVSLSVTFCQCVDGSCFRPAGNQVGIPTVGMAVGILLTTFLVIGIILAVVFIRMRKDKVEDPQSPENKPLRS", "assay": "flow cytometry (BD C6), secondary antibody alone on HEK293T Rat CDH17 moxGFP cells; on HEK293T Parental: 507.66"}, "[5]": {"target": "mouse CDH17-mGFP fusion protein overexpressed on HEK293T cells (mouse) (UniProt Q9R100)", "sequence (Q9R100 26-827)": "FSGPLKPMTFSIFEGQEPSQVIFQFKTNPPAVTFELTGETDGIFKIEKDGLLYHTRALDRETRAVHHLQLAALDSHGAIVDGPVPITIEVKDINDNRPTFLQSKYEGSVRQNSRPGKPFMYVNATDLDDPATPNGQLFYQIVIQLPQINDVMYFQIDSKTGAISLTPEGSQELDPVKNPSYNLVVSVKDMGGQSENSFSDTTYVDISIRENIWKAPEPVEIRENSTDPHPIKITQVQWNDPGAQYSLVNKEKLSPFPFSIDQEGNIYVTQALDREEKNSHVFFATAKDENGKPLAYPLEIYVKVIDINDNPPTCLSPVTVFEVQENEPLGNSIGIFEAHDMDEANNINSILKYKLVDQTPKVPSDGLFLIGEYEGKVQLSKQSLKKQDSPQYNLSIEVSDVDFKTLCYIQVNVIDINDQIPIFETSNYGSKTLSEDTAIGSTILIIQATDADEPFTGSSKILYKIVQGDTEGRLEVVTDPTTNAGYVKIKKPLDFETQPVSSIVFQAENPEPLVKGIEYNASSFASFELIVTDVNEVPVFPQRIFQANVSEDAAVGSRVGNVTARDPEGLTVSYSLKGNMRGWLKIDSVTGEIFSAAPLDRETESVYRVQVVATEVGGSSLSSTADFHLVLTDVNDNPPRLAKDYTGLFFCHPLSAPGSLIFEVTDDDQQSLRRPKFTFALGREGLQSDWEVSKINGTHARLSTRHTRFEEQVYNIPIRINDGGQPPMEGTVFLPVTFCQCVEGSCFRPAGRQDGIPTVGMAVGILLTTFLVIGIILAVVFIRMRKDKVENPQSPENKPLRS", "assay": "flow cytometry (BD C6), secondary antibody alone on HEK293T Mouse CDH17 mGFP cells; on HEK293T Parental: 507.66"}, "[6]": {"target": "human CDH17-mGFP fusion protein overexpressed on HEK293T cells (clone G11) (human) (UniProt Q12864)", "assay": "flow cytometry (BD C6), secondary antibody alone on HEK293T CDH17 mGFP G11 cells; on HEK293T Parental: 507.66"}, "[7]": {"target": "human cadherin-17 (CDH17), endogenously expressed on human cancer cell lines (LS513, SNU-C1, PaTu8988s, HPAF-II) (human) (UniProt Q12864)", "assay": "flow cytometry (iQue) on SNUC1 cells; secondary antibody only, background control"}, "[8]": {"target": "monkey (crab-eating macaque) CDH17 fused to moxGFP, overexpressed on HEK293T cells (monkey (crab-eating macaque))", "assay": "flow cytometry (BD C6), secondary antibody alone on HEK293T Macaque CDH17 moxGFP cells; on HEK293T Parental: 507.66"}, "[9]": {"target": "human CDH17-mGFP fusion protein overexpressed on HEK293T cells (clone G11) (human) (UniProt Q12864)", "assay": "flow cytometry (iQue) on HEK293T CDH17 mGFP clone G11 (human); secondary antibody only, background control"}}, "data": [{"substance": "AF647-anti-his tag 2° Ab (secondary antibody alone, control)", "values": [{"measurement": "FL4-H", "setting": "[1]", "value": 33200}]}, {"substance": "Herceptin (antibody)", "values": [{"measurement": "Kd", "setting": "BT474 Cells", "value": 0.769, "unit": "nM"}]}, {"substance": "fluorochrome-labelled anti-human IgG secondary antibody alone (2nd Ab only control)", "values": [{"measurement": "Antibody Binding Activity by Flow iQue", "setting": "[2]", "value": 5930}, {"measurement": "Antibody Binding Activity by Flow iQue", "setting": "[3]", "value": 4900}, {"measurement": "FL4-H", "setting": "[4]", "value": 633}, {"measurement": "FL4-H", "setting": "[5]", "value": 740}, {"measurement": "FL4-H", "setting": "[6]", "value": 727}, {"measurement": "Antibody Binding Activity by Flow iQue", "setting": "[7]", "value": 3900}, {"measurement": "FL4-H", "setting": "[8]", "value": 720}, {"measurement": "Antibody Binding Activity by Flow iQue", "setting": "[9]", "value": 1960}]}]}
